# B1: GpH7-A5/GpH7-B3 variant S267_09D/GpL16-k0 (antibody, human IgG1, kappa)
# heavy 1: not shown
# heavy 2: not shown
# light: DIVMTQSPLSLPVTPGEPASISCQASESLVHSNRNTYLHWYLQKPGQSPQLLIYKVSNRFSGVPDRFSGSGSGTDFTLKISRVEAEDVGVYYCSQNTHVPPTFGQGTKVEIERTVAAPSVFIFPPSDEQLKSGTASVVCLLNNFYPREAKVQWKVDNALQSGNSQESVTEQDSKDSTYSLSSTLTLSKADYEKHKVYACEVTHQGLSSPVTKSFNRGEC
# notes: also called He Ab S267_09D
# B2: GpH7-B3 variant T335_12R/GpL16-k0 (antibody, human IgG1, kappa)
# heavy: not shown
# light: B1 light
# notes: also called Ho Ab T335_12R
# B3: GpH7-A5/GpH7-B3 variant S239_14T/GpL16-k0 (antibody, human IgG1, kappa)
# heavy 1: not shown
# heavy 2: not shown
# light: B1 light
# notes: also called He Ab S239_14T
# B4: GpH7-B3 variant T335_15Y/GpL16-k0 (antibody, human IgG1, kappa)
# heavy: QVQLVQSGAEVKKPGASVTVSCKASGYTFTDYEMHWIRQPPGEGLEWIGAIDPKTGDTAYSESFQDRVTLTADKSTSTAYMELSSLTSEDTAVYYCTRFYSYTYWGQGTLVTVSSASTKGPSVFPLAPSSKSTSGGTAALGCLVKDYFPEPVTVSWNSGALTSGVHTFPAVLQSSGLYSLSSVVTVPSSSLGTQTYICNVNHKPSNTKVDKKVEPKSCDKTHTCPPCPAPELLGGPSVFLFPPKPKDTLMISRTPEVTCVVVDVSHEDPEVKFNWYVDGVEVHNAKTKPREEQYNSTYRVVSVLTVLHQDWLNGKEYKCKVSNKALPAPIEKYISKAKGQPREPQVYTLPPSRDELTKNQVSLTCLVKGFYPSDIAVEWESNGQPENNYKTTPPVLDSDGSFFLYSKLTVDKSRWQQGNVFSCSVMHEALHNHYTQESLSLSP
# light: B1 light
# notes: also called Ho Ab T335_15Y
# B5: GpH7-B3 variant Y300_12R/GpL16-k0 (antibody, human IgG1, kappa)
# heavy: not shown
# light: B1 light
# notes: also called Ho Ab Y300_12R
# B6: GpH7-B3 variant T335_06M/GpL16-k0 (antibody, human IgG1, kappa)
# heavy: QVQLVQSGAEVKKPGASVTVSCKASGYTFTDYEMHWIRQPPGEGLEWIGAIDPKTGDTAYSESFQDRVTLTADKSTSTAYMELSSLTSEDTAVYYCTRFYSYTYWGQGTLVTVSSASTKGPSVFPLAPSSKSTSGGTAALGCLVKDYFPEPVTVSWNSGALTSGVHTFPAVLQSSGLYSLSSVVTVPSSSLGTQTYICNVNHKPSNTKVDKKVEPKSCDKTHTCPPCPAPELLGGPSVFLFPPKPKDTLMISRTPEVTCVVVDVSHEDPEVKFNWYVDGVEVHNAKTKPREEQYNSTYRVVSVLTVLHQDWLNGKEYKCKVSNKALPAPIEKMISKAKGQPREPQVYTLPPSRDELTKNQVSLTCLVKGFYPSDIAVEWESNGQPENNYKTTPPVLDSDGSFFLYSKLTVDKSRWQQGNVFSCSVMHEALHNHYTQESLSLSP
# light: B1 light
# notes: also called Ho Ab T335_06M
# B7: GpH7-B3 variant S337_06M/GpL16-k0 (antibody, human IgG1, kappa)
# heavy: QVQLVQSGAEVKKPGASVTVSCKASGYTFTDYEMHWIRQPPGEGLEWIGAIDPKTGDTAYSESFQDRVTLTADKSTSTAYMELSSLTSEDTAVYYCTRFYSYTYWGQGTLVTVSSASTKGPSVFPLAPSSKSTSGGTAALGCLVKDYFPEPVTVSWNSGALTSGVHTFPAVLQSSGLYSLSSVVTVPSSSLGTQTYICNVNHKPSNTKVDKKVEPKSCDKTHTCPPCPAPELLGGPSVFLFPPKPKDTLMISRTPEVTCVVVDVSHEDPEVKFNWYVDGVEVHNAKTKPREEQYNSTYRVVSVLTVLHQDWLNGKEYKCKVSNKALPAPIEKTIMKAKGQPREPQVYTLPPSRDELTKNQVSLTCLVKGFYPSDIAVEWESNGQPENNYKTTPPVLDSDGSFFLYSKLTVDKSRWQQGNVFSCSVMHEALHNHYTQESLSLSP
# light: B1 light
# notes: also called Ho Ab S337_06M
# B8: GpH7-A5/GpH7-B3 variant P271_12R/GpL16-k0 (antibody, human IgG1, kappa)
# heavy 1: not shown
# heavy 2: not shown
# light: B1 light
# notes: also called He Ab P271_12R
# B9: GpH7-A5/GpH7-B3 variant S298_03V/GpL16-k0 (antibody, human IgG1, kappa)
# heavy 1: not shown
# heavy 2: not shown
# light: B1 light
# notes: also called He Ab S298_03V
# B10: GpH7-A5/GpH7-B3 variant S298_06M/GpL16-k0 (antibody, human IgG1, kappa)
# heavy 1: not shown
# heavy 2: not shown
# light: B1 light
# notes: also called He Ab S298_06M
# B11: GpH7-A5/GpH7-B3 variant Q295_07I/GpL16-k0 (antibody, human IgG1, kappa)
# heavy 1: not shown
# heavy 2: not shown
# light: B1 light
# notes: also called He Ab Q295_07I
# B12: GpH7-B3 variant T335_07I/GpL16-k0 (antibody, human IgG1, kappa)
# heavy: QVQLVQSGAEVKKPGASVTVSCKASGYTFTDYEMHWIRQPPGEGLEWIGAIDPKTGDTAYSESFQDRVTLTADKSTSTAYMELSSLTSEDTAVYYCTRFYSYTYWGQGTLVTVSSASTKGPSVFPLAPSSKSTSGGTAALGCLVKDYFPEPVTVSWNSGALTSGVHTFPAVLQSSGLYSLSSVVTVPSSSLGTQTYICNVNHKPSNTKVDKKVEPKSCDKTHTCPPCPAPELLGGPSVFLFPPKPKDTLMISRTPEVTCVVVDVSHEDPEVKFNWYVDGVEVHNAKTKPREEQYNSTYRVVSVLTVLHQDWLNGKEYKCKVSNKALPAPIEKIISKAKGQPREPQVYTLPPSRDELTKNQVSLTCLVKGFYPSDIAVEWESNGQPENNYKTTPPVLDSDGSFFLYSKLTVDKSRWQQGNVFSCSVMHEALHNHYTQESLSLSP
# light: B1 light
# notes: also called Ho Ab T335_07I
# B13: GpH7-A5/GpH7-B3 variant S239_01G/GpL16-k0 (antibody, human IgG1, kappa)
# heavy 1: not shown
# heavy 2: not shown
# light: B1 light
# notes: also called He Ab S239_01G
# B14: GpH7-B3 variant S337_10E/GpL16-k0 (antibody, human IgG1, kappa)
# heavy: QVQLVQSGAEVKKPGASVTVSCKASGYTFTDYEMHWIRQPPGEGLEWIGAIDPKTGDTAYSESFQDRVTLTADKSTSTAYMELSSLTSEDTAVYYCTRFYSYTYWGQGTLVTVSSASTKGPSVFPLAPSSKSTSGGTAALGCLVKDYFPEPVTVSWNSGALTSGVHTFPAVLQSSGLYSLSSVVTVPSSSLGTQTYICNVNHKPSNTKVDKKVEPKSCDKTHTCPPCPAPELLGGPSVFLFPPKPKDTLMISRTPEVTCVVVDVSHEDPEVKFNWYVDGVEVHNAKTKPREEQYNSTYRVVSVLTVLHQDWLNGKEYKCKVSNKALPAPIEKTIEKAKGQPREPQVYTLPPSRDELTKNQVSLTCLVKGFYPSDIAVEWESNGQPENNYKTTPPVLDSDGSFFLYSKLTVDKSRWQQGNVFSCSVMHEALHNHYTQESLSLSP
# light: B1 light
# notes: also called Ho Ab S337_10E
# B15: GpH7-A5/GpH7-B3 variant P271_06M/GpL16-k0 (antibody, human IgG1, kappa)
# heavy 1: not shown
# heavy 2: not shown
# light: B1 light
# notes: also called He Ab P271_06M
# B16: GpH7-A5/GpH7-B3 variant P271_11K/GpL16-k0 (antibody, human IgG1, kappa)
# heavy 1: not shown
# heavy 2: not shown
# light: B1 light
# notes: also called He Ab P271_11K
# B17: GpH7-B3 variant S337_07I/GpL16-k0 (antibody, human IgG1, kappa)
# heavy: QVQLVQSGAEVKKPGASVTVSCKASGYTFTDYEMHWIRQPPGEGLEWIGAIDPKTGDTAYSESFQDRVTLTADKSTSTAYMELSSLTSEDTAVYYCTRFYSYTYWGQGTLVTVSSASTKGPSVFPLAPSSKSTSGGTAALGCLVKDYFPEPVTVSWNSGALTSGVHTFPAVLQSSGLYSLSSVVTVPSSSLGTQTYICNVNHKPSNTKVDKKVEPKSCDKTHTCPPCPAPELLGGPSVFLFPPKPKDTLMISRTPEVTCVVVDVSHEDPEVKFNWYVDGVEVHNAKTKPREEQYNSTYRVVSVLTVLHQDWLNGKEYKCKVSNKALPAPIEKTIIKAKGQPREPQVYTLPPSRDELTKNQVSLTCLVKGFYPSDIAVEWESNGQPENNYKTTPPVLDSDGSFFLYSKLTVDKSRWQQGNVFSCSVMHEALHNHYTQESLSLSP
# light: B1 light
# notes: also called Ho Ab S337_07I
# B18: GpH7-B3 variant T335_09D/GpL16-k0 (antibody, human IgG1, kappa)
# heavy: not shown
# light: B1 light
# notes: also called Ho Ab T335_09D
# B19: GpH7-A5/GpH7-B3 variant S267_01G/GpL16-k0 (antibody, human IgG1, kappa)
# heavy 1: not shown
# heavy 2: not shown
# light: B1 light
# notes: also called He Ab S267_01G
# B20: GpH7-A5/GpH7-B3 variant P271_13S/GpL16-k0 (antibody, human IgG1, kappa)
# heavy 1: not shown
# heavy 2: not shown
# light: B1 light
# notes: also called He Ab P271_13S
# B21: GpH7-A5/GpH7-B3 variant P271_04F/GpL16-k0 (antibody, human IgG1, kappa)
# heavy 1: not shown
# heavy 2: not shown
# light: B1 light
# notes: also called He Ab P271_04F
# B22: GpH7-B3 variant T335_10E/GpL16-k0 (antibody, human IgG1, kappa)
# heavy: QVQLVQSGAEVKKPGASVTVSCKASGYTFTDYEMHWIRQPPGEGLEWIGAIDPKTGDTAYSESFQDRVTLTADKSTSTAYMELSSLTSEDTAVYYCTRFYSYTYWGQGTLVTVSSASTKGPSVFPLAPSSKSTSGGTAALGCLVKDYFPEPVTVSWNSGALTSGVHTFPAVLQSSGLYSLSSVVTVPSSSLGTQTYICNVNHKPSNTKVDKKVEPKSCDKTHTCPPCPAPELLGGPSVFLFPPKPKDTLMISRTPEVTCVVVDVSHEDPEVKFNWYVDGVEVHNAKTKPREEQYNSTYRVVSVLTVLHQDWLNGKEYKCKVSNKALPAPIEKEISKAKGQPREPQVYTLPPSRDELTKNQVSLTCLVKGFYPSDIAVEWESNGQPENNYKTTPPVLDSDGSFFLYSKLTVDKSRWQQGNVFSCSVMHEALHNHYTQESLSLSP
# light: B1 light
# notes: also called Ho Ab T335_10E
# B23: GpH7-A5/GpH7-B3 variant S239_18N/GpL16-k0 (antibody, human IgG1, kappa)
# heavy 1: not shown
# heavy 2: not shown
# light: B1 light
# notes: also called He Ab S239_18N
# B24: GpH7-A5/GpH7-B3 variant S298_04F/GpL16-k0 (antibody, human IgG1, kappa)
# heavy 1: not shown
# heavy 2: not shown
# light: B1 light
# notes: also called He Ab S298_04F
# B25: GpH7-B3 variant T335_04F/GpL16-k0 (antibody, human IgG1, kappa)
# heavy: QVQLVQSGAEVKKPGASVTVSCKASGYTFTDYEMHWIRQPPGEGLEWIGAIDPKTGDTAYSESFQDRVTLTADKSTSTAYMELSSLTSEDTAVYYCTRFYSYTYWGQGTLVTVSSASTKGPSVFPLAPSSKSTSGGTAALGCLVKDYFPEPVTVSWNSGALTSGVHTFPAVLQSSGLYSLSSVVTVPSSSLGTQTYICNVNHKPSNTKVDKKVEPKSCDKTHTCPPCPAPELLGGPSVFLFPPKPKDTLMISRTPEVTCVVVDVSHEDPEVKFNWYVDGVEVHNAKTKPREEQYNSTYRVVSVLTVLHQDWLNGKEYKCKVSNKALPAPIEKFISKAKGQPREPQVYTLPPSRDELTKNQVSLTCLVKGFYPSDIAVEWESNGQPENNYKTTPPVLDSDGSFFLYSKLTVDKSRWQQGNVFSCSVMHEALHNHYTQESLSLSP
# light: B1 light
# notes: also called Ho Ab T335_04F
# B26: GpH7-B3 variant S337_15Y/GpL16-k0 (antibody, human IgG1, kappa)
# heavy: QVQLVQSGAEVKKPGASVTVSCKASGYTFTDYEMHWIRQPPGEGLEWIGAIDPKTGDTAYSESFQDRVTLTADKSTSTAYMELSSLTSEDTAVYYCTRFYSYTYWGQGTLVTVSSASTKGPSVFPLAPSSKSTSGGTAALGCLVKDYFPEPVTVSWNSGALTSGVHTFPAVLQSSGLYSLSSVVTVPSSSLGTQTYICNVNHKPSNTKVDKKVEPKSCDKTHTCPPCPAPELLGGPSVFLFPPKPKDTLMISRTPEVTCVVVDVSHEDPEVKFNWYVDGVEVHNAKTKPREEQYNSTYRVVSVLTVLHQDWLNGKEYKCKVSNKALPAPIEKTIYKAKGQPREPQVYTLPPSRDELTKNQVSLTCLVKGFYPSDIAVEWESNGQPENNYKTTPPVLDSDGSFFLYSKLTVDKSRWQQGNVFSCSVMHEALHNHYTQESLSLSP
# light: B1 light
# notes: also called Ho Ab S337_15Y
# B27: GpH7-B3 variant V266_19Q/GpL16-k0 (antibody, human IgG1, kappa)
# heavy: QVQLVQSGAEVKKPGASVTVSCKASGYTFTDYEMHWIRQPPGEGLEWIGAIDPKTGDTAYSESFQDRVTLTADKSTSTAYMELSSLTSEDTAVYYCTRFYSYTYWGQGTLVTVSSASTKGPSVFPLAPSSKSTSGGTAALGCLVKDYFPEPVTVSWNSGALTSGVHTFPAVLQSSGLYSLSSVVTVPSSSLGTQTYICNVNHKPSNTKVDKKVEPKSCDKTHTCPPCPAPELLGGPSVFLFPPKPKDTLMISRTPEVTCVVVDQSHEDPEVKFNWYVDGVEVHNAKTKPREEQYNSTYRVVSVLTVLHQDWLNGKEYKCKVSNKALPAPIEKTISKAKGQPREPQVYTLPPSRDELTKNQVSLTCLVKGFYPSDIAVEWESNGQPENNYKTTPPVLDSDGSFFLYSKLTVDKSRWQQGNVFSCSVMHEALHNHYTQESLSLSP
# light: B1 light
# notes: also called Ho Ab V266_19Q
# B28: GpH7-A5/GpH7-B3 variant Q295_18N/GpL16-k0 (antibody, human IgG1, kappa)
# heavy 1: not shown
# heavy 2: not shown
# light: B1 light
# notes: also called He Ab Q295_18N
# What was measured:
# FcγRIa [1] = target: T1, FcγRIa (human, UniProt P12314 16-292); assay: SPR (Biacore); He Ab vs HeCon Ab GpH7-A5/GpH7-B3/GpL16-k0
# T1 construct: extracellular domain; Soluble extracellular domain expressed in FreeStyle293 cells, used as analyte in Biacore; also called FcgRI; 1a; not shown: His tag attached to the C terminus
# T1 sequence (P12314 16-292): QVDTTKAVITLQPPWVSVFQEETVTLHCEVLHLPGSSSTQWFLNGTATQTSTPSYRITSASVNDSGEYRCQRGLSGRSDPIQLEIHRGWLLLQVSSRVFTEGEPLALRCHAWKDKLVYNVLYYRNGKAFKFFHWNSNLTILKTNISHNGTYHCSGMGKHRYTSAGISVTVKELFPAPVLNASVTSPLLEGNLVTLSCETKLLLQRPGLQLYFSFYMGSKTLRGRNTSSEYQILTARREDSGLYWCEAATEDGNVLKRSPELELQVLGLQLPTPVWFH
# Protocol: (§1) Analysis of interaction between objective antibody and the FcγR was carried out using Biacore T100 (GE Healthcare). HBS-EP+ (GE Healthcare) was used as the running buffer, and the measurement temperature was set to 25° C. Chips produced by immobilizing the antigen peptide by the amine coupling method to a Series S Sencor Chip CM5 (GE Healthcare), or alternatively, chips produced by allowing preliminarily biotinylated antigen peptides to interact with and immobilize onto a Series S Sensor Chip SA (certified) (GE Healthcare) were used. Antibodies of interest were captured onto an antigen peptide-immobilized chip, and allowed to interact to each FcγR diluted with running buffer. To regenerate and repeatedly use the chip, the antibodies captured on the chip were washed off by reacting 10 mM glycine-HCl, pH 1.5.
# FcγRIa [2] = target: T1, FcγRIa; assay: SPR (Biacore); Ho Ab vs HoCon Ab GpH7-B3/GpL16-k0
# Protocol: as §1
binder,measurement,setting,value
B1,He/Con_1a,FcγRIa [1],"110 relative binding, control = 100"
B2,Ho/Con_1a,FcγRIa [2],"106 relative binding, control = 100"
B3,He/Con_1a,FcγRIa [1],"101 relative binding, control = 100"
B4,Ho/Con_1a,FcγRIa [2],"106 relative binding, control = 100"
B5,Ho/Con_1a,FcγRIa [2],"96.5 relative binding, control = 100"
B6,Ho/Con_1a,FcγRIa [2],"106 relative binding, control = 100"
B7,Ho/Con_1a,FcγRIa [2],"102 relative binding, control = 100"
B8,He/Con_1a,FcγRIa [1],"102 relative binding, control = 100"
B9,He/Con_1a,FcγRIa [1],"110 relative binding, control = 100"
B10,He/Con_1a,FcγRIa [1],"114 relative binding, control = 100"
B11,He/Con_1a,FcγRIa [1],"103 relative binding, control = 100"
B12,Ho/Con_1a,FcγRIa [2],"105 relative binding, control = 100"
B13,He/Con_1a,FcγRIa [1],"101 relative binding, control = 100"
B14,Ho/Con_1a,FcγRIa [2],"104 relative binding, control = 100"
B15,He/Con_1a,FcγRIa [1],"102 relative binding, control = 100"
B16,He/Con_1a,FcγRIa [1],"103 relative binding, control = 100"
B17,Ho/Con_1a,FcγRIa [2],"105 relative binding, control = 100"
B18,Ho/Con_1a,FcγRIa [2],"107 relative binding, control = 100"
B19,He/Con_1a,FcγRIa [1],"103 relative binding, control = 100"
B20,He/Con_1a,FcγRIa [1],"102 relative binding, control = 100"
B21,He/Con_1a,FcγRIa [1],"102 relative binding, control = 100"
B22,Ho/Con_1a,FcγRIa [2],"108 relative binding, control = 100"
B23,He/Con_1a,FcγRIa [1],"101 relative binding, control = 100"
B24,He/Con_1a,FcγRIa [1],"109 relative binding, control = 100"
B25,Ho/Con_1a,FcγRIa [2],"105 relative binding, control = 100"
B26,Ho/Con_1a,FcγRIa [2],"104 relative binding, control = 100"
B27,Ho/Con_1a,FcγRIa [2],"91.2 relative binding, control = 100"
B28,He/Con_1a,FcγRIa [1],"102 relative binding, control = 100"
